This passage reports EC50 results from US20240117061A1 (WUHAN YZY BIOPHARMA, published 2024).

Test [1] has as its target T1, cynomolgus monkey BCMA on HEK293 cynoBCMA cells (cynomolgus monkey, UniProt A0A2K5UD97 1-183).
T1 construct: whole, on cells
Nature of the test: flow cytometry on HEK293 cynoBCMA cells; HEK293 cynoBCMA cells. As for the experimental part:
(§1) The affinities of the 3 mouse antibodies for cell surface BCMA antigen were assessed using FACS. Materials: cell lines NCI-H929, U266B1, HEK293 cynoBCMA and HEK293; PBS buffer; FBS (fetal bovine serum; Gibco, 10099141); PE goat anti-mouse IgG Fc (Biolegend, 405307). Procedures: The cells were resuspended in PBS to prepare cell suspensions containing 200,000 cells. Mouse BCMA antibodies were added to a 96-well plate at 50 μL/well and serially 3-fold diluted from 3000 nM. The plate was incubated for 1 h at 4° C. 150 μL of precooled PBS containing 1% of FBS was added into the 96-well plate after the co-incubation with the primary antibody was finished. The mixtures were centrifuged at 300×g for 5 min and the supernatants were discarded. The above procedures were repeated once. The fluorescent secondary antibody PE goat anti-mouse IgG Fc was added at 80 μL/well. The plate was incubated at 4° C. for 30 min. 150 μL of precooled PBS containing 1% of FBS was added into the 96-well plate after the co-incubation with the secondary antibody was finished. The mixtures were uniformly mixed with a pipette. The 96-well plate was centrifuged at 300×g for 5 min in a plate centrifuge and the supernatants were discarded. The above procedures were repeated once. The cells were resuspended in 100 μL of PBS containing 1% of FBS and detected on a flow cytometry (BD Accuri™ C6).
(In general: Flow cytometry measures light scatter and fluorescence of single cells or particles in a stream.)

Test [2] addresses T2, human BCMA on cells (NCI-H929, U266B1, HEK293 huBCMA) (human, UniProt Q02223 1-184).
T2 construct: whole, on cells; also called cell surface BCMA antigen
T2 sequence (looked up): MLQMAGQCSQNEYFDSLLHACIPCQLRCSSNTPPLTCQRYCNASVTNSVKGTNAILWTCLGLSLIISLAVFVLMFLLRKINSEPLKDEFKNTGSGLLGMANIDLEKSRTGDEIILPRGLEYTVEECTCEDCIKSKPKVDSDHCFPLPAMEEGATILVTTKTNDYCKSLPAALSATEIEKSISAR
Nature of the test: flow cytometry on NCI-H929 cells. As for the experimental part:
as §1

For test [3], the target named is T3, recombinant cynomolgus monkey BCMA-huFc (cynomolgus monkey; human).
T3 construct: also called cynoBCMA-huFc
The experiment in a line: indirect ELISA, coated antigen. How it is done:
(§2) Procedures: Human, mouse and monkey BCMA antigens were prepared into 0.5 μg/mL coating solutions with PBS buffer. The coating solutions were added to a microplate at 100 μL/well and incubated at 4° C. overnight. The residual coating solution was discarded before 3% BSA was added at 300 μL/well, and the plate was blocked for 3 h at room temperature. The microplate was washed once with PBST (PBS containing 0.1% of TWEEN 20) at 300 μL/well. The three mouse BCMA antibodies were serially 3-fold diluted from 10 μg/mL to the 7th concentration. The dilutions were added to the microplate at 100 μL/well. After a 1-h incubation at room temperature, the microplate was washed thrice with PBST at 300 μL/well. The HRP goat anti-mouse IgG antibody was 25,000-fold diluted with 1% BSA-PBST and added at 100 μL/well. After another 1-h incubation at room temperature, the microplate was washed thrice with PBST at 300 μL/well and dried. The TMB chromogenic solution was added at 100 μL/well. After a 5-min reaction at room temperature, 2 M H₂SO₄ was added at 100 μL/well to terminate the reaction. The microplate was placed on a microplate reader (Molecular Devices, SPECTRA Max plus 384) and the absorbance OD450 value was read at 450 nm wavelength.

Test [4] has as its target T4, recombinant human BCMA-huFc fusion protein (human).
T4 construct: also called huBCMA-huFc
Nature of the test: indirect ELISA, coated antigen. As for the experimental part: as §2
Background: ELISA stands for enzyme-linked immunosorbent assay.

Test [5] deals with T2, human BCMA on cells (NCI-H929, U266B1, …). Nature of the test: flow cytometry on U266B1 cells. As for the experimental part:
as §1

T3 sequence (chain, as listed by the source limits assumed): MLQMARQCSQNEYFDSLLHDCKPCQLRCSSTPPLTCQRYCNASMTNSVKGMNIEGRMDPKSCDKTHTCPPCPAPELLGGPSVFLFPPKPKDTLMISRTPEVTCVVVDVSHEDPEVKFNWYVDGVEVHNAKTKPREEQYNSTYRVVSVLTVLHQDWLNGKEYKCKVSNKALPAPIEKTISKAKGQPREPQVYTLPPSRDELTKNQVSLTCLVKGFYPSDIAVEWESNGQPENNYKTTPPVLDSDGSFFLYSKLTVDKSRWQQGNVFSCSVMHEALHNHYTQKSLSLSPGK
T1 sequence (A0A2K5UD97 entry or part of it): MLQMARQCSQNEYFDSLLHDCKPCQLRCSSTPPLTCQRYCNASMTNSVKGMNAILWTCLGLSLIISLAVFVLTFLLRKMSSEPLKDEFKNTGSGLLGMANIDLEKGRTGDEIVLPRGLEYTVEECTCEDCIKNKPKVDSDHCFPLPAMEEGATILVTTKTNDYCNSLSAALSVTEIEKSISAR

B1: mouse monoclonal antibody 211B11H10G5 (antibody, V domains shown)
VH: EVQLQQSGPELVKPGASVKILCKASGYTITDYNMDWVKRSHGKSLEWIGNINPHNGGSIYNQKFKGKATLTVDKSSSTAFMELRSLTSEDTAVYYCARGDATLVLDYWGQGTSLTVSS
VL: DIVLTQSPASLAVSLGQRATISCRASKSVSTSGLSYMHWYQQKPGQPPKVLIYLASNLESGVPARFSGSGSGTDFTLNIHPVEEEDAATYYCQHSRELPPTFGAGTKLELK
notes: detected with anti-mouse IgG; also called Clone 211B11H10G5; BCMA-HC3/BCMA-LC3
In the case of B1, the EC50 – broadly, the concentration giving half of the maximal effect – in test [1] turned out to be 30.9 nM; in test [2], 11.9 nM; in test [3], 0.0309 nM; in test [4], 0.0492 nM; in test [5], 24.5 nM.
